Results on one molecule are retold here after paper PMC2629585, “Local Inflammation Induces Complement Crosstalk Which Amplifies the Antimicrobial Response” (PLoS Pathogens, 2009).

The target in the experiment is T1, C1q (UniProt P02745 23-245; P02746 28-253; P02747 29-245).
T1 construct: complement C1q subcomponent subunit A; complement C1q subcomponent subunit B; complement C1q subcomponent subunit C; source: bought: Quidel (San Diego, CA); copies: + +
Kind of experiment: ELISA; competition; 0.8 ug CRP immobilised; 0.8 ug C1q with increasing L-ficolin or 0.8 ug L-ficolin with increasing C1q; TBS, 0.05% Tween-20, 1% HSA, pH 7.4, 2.5 mM calcium. The following applies: both partners purified.

T1 sequence (P02745 23-245, chain 1 of 3): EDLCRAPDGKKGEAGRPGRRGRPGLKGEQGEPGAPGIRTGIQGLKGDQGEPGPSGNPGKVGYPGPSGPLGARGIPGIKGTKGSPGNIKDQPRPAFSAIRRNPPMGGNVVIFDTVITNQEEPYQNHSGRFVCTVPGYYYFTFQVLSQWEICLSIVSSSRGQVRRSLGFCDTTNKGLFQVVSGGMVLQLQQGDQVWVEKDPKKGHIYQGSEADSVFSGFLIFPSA
T1 sequence (P02746 28-253, chain 2 of 3): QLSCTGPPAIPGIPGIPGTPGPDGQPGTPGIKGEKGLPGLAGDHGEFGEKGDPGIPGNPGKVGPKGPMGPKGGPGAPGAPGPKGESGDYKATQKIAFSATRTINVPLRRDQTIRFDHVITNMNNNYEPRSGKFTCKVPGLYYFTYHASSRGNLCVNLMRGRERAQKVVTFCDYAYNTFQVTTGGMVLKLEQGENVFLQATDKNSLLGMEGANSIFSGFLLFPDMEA
T1 sequence (P02747 29-245, chain 3 of 3): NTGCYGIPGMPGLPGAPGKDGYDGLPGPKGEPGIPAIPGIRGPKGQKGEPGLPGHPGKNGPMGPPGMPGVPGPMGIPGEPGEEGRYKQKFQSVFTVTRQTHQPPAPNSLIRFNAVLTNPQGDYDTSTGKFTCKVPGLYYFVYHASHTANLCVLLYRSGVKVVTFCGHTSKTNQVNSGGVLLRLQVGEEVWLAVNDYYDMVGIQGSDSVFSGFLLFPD

B1: C-reactive protein (CRP), human, purified (Sigma) (natural protein, UniProt P02741 19-224, looked up)
chain: QTDMSRKAFVFPKESDTSYVSLKAPLTKPLKAFTVCLHFYTELSSTRGYSIFSYATKRQDNEILIFWSKDIGYSFTVGGSEILFEVPEVTVAPVHICTSWESASGIVEFWVDGKPRVRKSLKKGYTVGAEASIILGQEQDSFGGNFEGSQSLVGDIGNVNMWDFVLSPDEINTIYLGGPFSPNVLNWRALKYEVQGEVFTKPQLWP
notes: human C-reactive protein, bought from Sigma; purity checked by SDS PAGE and mass spectrometry; source: bought: Sigma
For the molecule B1, the binding result was “binds”.
